Values quoted from earlier work in PMC3253018.

Molecular target: NiV-G attachment glycoprotein (Nipah virus) (UniProt Q9IH62)
Sequence (Q9IH62 whole entry): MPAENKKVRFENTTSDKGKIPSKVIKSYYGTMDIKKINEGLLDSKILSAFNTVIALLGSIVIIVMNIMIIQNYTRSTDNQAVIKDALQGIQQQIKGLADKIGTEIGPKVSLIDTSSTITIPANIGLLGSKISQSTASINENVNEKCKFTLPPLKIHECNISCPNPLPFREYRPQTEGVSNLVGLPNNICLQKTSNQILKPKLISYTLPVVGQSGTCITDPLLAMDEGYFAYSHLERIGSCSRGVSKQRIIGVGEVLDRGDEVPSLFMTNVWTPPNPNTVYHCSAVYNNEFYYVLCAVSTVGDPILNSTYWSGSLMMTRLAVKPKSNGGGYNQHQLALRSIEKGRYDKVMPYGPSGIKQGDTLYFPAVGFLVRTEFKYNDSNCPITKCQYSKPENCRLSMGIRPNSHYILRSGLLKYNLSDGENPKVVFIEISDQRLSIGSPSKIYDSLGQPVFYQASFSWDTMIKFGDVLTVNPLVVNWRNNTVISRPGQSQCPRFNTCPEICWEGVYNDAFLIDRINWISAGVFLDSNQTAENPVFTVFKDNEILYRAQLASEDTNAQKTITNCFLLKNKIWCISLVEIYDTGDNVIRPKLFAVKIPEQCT

Sequence of ephrinB2 (P52799 28-333): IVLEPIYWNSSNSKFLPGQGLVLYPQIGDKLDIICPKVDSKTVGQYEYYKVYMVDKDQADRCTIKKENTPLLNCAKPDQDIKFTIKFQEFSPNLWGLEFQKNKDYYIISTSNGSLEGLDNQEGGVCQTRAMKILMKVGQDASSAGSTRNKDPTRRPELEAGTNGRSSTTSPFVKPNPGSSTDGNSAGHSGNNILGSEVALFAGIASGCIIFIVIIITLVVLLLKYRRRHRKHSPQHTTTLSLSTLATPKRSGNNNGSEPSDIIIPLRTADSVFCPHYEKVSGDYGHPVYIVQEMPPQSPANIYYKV

ephrinB2 (from UniProt P52799)
Kd: 0.06 nM
